In patent publication US20210253716A1 (Regeneron, published 2021):

T1: human ACVR1 extracellular domain expressed with a C-terminal mouse IgG2a Fc tag (human)
T1 construct: also called hACVR1-mFc
T1 chain: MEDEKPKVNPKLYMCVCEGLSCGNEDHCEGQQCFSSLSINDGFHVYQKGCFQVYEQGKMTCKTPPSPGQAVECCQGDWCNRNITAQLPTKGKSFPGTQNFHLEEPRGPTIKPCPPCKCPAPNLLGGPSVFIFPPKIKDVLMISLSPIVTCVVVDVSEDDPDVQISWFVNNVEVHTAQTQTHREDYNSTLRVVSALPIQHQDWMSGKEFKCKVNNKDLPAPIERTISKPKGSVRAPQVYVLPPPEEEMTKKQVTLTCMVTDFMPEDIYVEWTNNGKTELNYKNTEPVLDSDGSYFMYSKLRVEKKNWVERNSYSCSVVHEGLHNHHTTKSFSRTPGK

T2: mouse ACVR1 extracellular domain expressed with a C-terminal myc-myc-hexahistidine tag (mouse)
T2 construct: also called mACVR1-MMH; mACVR1-mmh
T2 chain: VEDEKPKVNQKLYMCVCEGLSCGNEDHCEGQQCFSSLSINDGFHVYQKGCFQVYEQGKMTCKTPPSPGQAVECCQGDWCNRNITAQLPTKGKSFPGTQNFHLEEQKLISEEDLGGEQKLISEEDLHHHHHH

T3: human ACVR1 extracellular domain expressed with a C-terminal myc-myc-hexahistidine tag (human)
T3 construct: also called hACVR1-MMH
T3 chain: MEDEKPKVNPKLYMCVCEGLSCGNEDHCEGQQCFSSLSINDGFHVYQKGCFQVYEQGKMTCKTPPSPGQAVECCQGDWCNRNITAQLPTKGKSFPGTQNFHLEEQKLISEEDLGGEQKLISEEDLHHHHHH

T4: full length human ACVR1 (R206H) on HEK293/BRE-luc/hACVR1-R206H-clone H2 cells (human, UniProt Q04771 21-509)
T4 construct: also called HEK293/hACVR1-R206H
T4 sequence: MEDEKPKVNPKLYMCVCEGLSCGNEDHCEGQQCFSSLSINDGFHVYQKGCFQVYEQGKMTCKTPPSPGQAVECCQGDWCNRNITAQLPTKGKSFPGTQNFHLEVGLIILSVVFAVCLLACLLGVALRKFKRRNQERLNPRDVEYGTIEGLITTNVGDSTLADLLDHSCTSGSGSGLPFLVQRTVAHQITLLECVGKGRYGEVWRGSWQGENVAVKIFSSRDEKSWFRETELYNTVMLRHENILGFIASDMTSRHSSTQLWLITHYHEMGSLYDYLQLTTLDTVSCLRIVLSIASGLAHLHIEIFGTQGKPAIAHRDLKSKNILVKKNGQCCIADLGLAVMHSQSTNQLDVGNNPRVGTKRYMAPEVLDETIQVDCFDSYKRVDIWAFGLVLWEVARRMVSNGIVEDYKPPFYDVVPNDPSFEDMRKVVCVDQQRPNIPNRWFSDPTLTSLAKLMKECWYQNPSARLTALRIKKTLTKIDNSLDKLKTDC

T5: full length wild type human ACVR1 on HEK293/BRE-luc/hACVR1-wild type cells (human, UniProt Q04771 21-509)
T5 construct: also called HEK293/hACVR1-wt; hACVR1-wt
T5 sequence: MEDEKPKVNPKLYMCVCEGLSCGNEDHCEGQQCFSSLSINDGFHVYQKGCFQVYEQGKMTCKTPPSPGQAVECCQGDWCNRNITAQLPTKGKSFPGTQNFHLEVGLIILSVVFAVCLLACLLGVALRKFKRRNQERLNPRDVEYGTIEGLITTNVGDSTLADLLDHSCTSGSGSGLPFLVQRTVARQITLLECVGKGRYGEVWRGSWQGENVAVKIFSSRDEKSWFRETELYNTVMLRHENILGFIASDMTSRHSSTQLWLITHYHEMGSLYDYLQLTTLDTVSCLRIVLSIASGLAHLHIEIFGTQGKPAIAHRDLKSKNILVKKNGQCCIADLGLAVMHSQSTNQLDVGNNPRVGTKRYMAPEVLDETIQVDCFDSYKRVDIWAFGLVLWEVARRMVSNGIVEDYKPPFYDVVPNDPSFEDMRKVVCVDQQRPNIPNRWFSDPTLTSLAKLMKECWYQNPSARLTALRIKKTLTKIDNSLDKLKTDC


Columns and labels:
[1] = molecular target: T1, human ACVR1 extracellular domain …; assay: SPR (Biacore), mAb captured, 37 C
Experimental: (§1) Equilibrium dissociation constants (KD) for ACVR1 binding to purified anti-ACVR1 monoclonal antibodies were determined using a real-time surface plasmon resonance biosensor (SPR-Biacore), Biacore 4000. All binding studies were performed in 10 mM HEPES, 150 mM NaCl, 3 mM EDTA, and 0.05% v/v surfactant Tween-20, pH 7.4 (HBS-ET) running buffer at 25° C. and 37° C. The Biacore CM5 sensor surface was first derivatized by amine coupling with a monoclonal mouse anti-human Fc antibody (GE, #BR-1008-39 or REGN2567) to capture anti-ACVR1 monoclonal antibodies. […] ACVR1 reagents were then injected over anti-human Fc captured anti-ACVR1 monoclonal antibody surface for 2.5-3 minutes at a flow rate of 30 μL/minute, while the dissociation of monoclonal antibody bound ACVR1 reagent was monitored for 10-15 minutes in HBS-ET running buffer. Kinetic association rate constant (kₐ) and dissociation rate constant (kd) were determined by fitting the real-time sensorgrams to a 1:1 binding model using Scrubber 2.0c curve-fitting software. Binding dissociation equilibrium constants (KD) and dissociative half-lives (t½) were calculated from the kinetic rate constants as: […]

[2] = molecular target: T2, mouse ACVR1 extracellular domain …; assay: SPR (Biacore), mAb captured, 37 C
Experimental: as §1

[3] = molecular target: T3, human ACVR1 extracellular domain …; assay: SPR (Biacore), mAb captured, 37 C; 37 C
Experimental: as §1

[4] = molecular target: T1, human ACVR1 extracellular domain …; assay: SPR (Biacore), mAb captured, 25 C
Experimental: as §1

[5] = molecular target: T2, mouse ACVR1 extracellular domain …; assay: SPR (Biacore), mAb captured, 25 C
Experimental: as §1

[6] = molecular target: T4, full length human ACVR1 (R206H) on …; assay: flow cytometry, 70 nM antibody, HEK293/hACVR1-R206H cells
Experimental: (§2) Cells were fixed using BD CytoFix™ (Becton Dickinson, #554655) and analyzed on either Hypercyt® or IQue® Flow Cytometers (Intellicyt®). Unstained and secondary antibody alone controls were also tested for all cell lines. The results were analyzed using ForeCyt® (IntelliCyt®) software to determine the geometric means of fluorescence for viable cells and binding ratios were calculated by normalizing the geometric mean value of the test condition by the geometric mean value of the corresponding unstained cells.

[7] = molecular target: T4, full length human ACVR1 (R206H) on …; assay: cell-based or functional assay
[8] = molecular target: T3, human ACVR1 extracellular domain …; assay: SPR (Biacore), mAb captured, 37 C
Experimental: as §1

[9] = molecular target: T3, human ACVR1 extracellular domain …; assay: SPR (Biacore), mAb captured, 25 C
Experimental: as §1

[10] = molecular target: T2, mouse ACVR1 extracellular domain …; assay: SPR (Biacore), mAb captured, 25 C; 25 C
Experimental: as §1

[11] = molecular target: T5, full length wild type human ACVR1 on …; assay: flow cytometry, 66.6 nM antibody, HEK293/hACVR1-wt cells
Experimental: as §2

[12] = molecular target: T4, full length human ACVR1 (R206H) on …; assay: flow cytometry, 66.6 nM antibody, HEK293/hACVR1-R206H cells
Experimental: as §2

Row | 100 nM Ag Bound (RU) [1] | Kd [1] | koff [1] | kon [1] | t½ [1] | 900 nM or 100 nM Ag Bound (RU) [2] | 100 nM Ag Bound (RU) [4] | Kd [4] | koff [4] | kon [4] | t½ [4] | 900 nM or 100 nM Ag Bound (RU) [5] | MFI - Normalized to Unstained Control [6] | % Inhibition, BRE-luc reporter, 2 nM hBMP7 [7] | IC50 [M], BRE-luc reporter, 2 nM hBMP7 [7] | 900 nM or 100 nM Ag Bound (RU) [8] | Kd [8] | koff [8] | kon [8] | t½ [8] | Binder | further results
1 | 68 RU | 12.8 nM | 0.000163 s⁻¹ | 12700 M⁻¹ s⁻¹ | 71 min | 2 RU | 24 RU | 11.9 nM | 0.000142 s⁻¹ | 11900 M⁻¹ s⁻¹ | 81 min | -3 RU | 840 fold | 96% | 2e-09 M | – | – | – | – | – | mAb27400 (antibody, human IgG4 S228P, kappa, V domains shown) VH: EMQLVESGGGLVQPGGSLKVSCAASGFTLSDSSIHWVRQASGKGLEWIGRIRSKPYSYATAYAASVKGRFTISRDDSKNTAFLQMSGLKTEDTAVYYCTGGDDFWGQGTLVTVSS VL: DIQMTQSPSTLSASVGDRITITCRASQSISTWLAWYQQKPGKAPKLLIYKASSLEGGVPSRFSGSGSGTDFTLTISSLQPDDFATYYCQQYNTYWTFGQGTKVEIKR | Kd [3]: 49 nM; koff [3]: 0.000476 s⁻¹; kon [3]: 9710 M⁻¹ s⁻¹; t½ [3]: 24 min
2 | 216 RU | 1.11 nM | 0.000338 s⁻¹ | 303000 M⁻¹ s⁻¹ | 34 min | 4 RU | 160 RU | 0.444 nM | 8.76e-05 s⁻¹ | 198000 M⁻¹ s⁻¹ | 132 min | 1 RU | 1870 fold | 109% | 8.8e-10 M | 67 RU | 7.63 nM | 0.00183 s⁻¹ | 240000 M⁻¹ s⁻¹ | 6 min | mAb27404 (antibody, human IgG4 S228P, kappa, V domains shown) VH: QVQLVESGGGLVKPGGSLRLSCAASGFTFSDYYMSWIRQAPGKGLEWISFISRTGSTKYYADSVKGRFTISRDNAKNSLNLQMSSLRAEDTAVYFCAREPLQHWGQGTLVTVSS VL: NVVLTQTPISSPVILGQPASISCRSSQSLVHSDGDTYLSWLHQRPGQPPRLLIYTVSNRVSGVPDRFSGSGAGTDFTLKISRVEAEDVGVYYCMQGTQFPALTFGGGTKVEIKR | 900 nM or 100 nM Ag Bound (RU) [9]: 46 RU; Kd [9]: 4.49 nM; koff [9]: 0.000446 s⁻¹; kon [9]: 99200 M⁻¹ s⁻¹; t½ [9]: 26 min; binding result [5]: no binding (tested: 900 nM or 100 nM)
3 | 250 RU | 0.669 nM | 0.000189 s⁻¹ | 282000 M⁻¹ s⁻¹ | 61 min | – | 199 RU | 0.202 nM | 2.9e-05 s⁻¹ | 144000 M⁻¹ s⁻¹ | 398 min | – | 1730 fold | 109% | 1.2e-09 M | 82 RU | 5.77 nM | 0.00083 s⁻¹ | 144000 M⁻¹ s⁻¹ | 14 min | mAb27242 (antibody, human IgG4 S228P, kappa, V domains shown) VH: QVQLQQWGAGLLKPSETLSLTCAVYNGSFSSFYWSWIRQPPGKGLEWLGEINHRGRTNNNPSLASRVTISVDTSKSQFSLRLTSVTAADTATYYCTAHTRGFLYWGQGTRVTVSS VL: DIQMTQSPSSLSASVGDRVTITCQASQDINNYLNWYQQKPGQAPNLLIYDVFNLLPGVPSRFSGSGSGTDFSFTISSLQPEDIATYYCQHYDDLPLTFGGGTTVAIRR | Kd [10]: 602 nM; koff [10]: 0.144 s⁻¹; kon [10]: 238000 M⁻¹ s⁻¹; t½ [10]: 0.08 min; 900 nM or 100 nM Ag Bound (RU) [9]: 63 RU; Kd [9]: 1.56 nM; koff [9]: 0.000135 s⁻¹; kon [9]: 86800 M⁻¹ s⁻¹; t½ [9]: 86 min
4 | 317 RU | 30.1 nM | 0.0025 s⁻¹ | 83300 M⁻¹ s⁻¹ | 4.6 min | 85 RU | 264 RU | 11.4 nM | 0.000765 s⁻¹ | 66900 M⁻¹ s⁻¹ | 15 min | 94 RU | – | – | – | 86 RU | 438 nM | 0.0308 s⁻¹ | 70400 M⁻¹ s⁻¹ | 0.37 min | mAb22115 (antibody, human IgG4 S228P, kappa, V domains shown) VH: EVQLVESGGGLVQPGGSLRLSCAASGFTSSRYWMSWVRQAPGKGLEWLANINQDGSEKYYLESLRGRFTISRDNAKNSLYLQMNNLRAEDTAVYYCARDEEGYWGQGTLVTVSS VL: DVVMTQSLLSLSVTLGQPASISCRSSQSLVYSDGDTYLSWFQQRPGQSPRRLIYKVSHRDSGVPDRFRGSGSGTDFTLKISRVEAEDVGIYYCMQGTHWPPTFGQGTKVEIKR | Kd [2]: 504 nM; koff [2]: 0.0297 s⁻¹; kon [2]: 58900 M⁻¹ s⁻¹; t½ [2]: 0.39 min; MFI - Normalized to Unstained Control [11]: 4 fold; 900 nM or 100 nM Ag Bound (RU) [9]: 93 RU; Kd [9]: 145 nM; koff [9]: 0.00485 s⁻¹; kon [9]: 33400 M⁻¹ s⁻¹; t½ [9]: 2.4 min; Kd [5]: 171 nM; koff [5]: 0.00478 s⁻¹; kon [5]: 28000 M⁻¹ s⁻¹; t½ [5]: 2.4 min; MFI - Normalized to Unstained Control [12]: 4 fold
